Type in all cases: cell-based, Yarrowia
The test system of experiment [1] is olivetolic acid. Put plainly: MPT fusions with GPS1.1 vs unfused MPTs, OA feed (Example 8, Table 9). To be noted: 2 mM olivetolic acid, 48 h quench. In outline:
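Yeast strain sCL-SE-0128 carrying MPT or GPS1.1–MPT fusion plasmids, precultured 48 h in YNB/2% glucose/0.5% casamino acids/100 mM MES pH 6.5. Assay medium was the same plus 2 mM olivetolic acid, 30 °C. Cultures were ethanol-quenched at 48 h total growth, and CBGA and FCBGA were measured by HPLC-MS with internal standard; values are replicate means ± SD.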

Experiment [2] concerns olivetolic acid. Put plainly: GPS1.1 fusions of MPT21 mutants, OA feed (Example 8, Table 10). To be noted: 3 mM olivetolic acid, 6% glucose, 48 h quench; strain sCL-SE-0128. The method, then: (§1) Overnight YPD (10 g/L yeast extract, 20 g/L peptone, 2% dextrose) cultures were inoculated from glycerol stocks of the appropriate strain and grown at 30° C. with 250 rpm shaking. Once cultures had reached an OD600 of 4-6, cultures were centrifuged at 500×g for 5 min, supernatants were discarded, and cell pellets were resuspended in equal volume of water. Resuspended cells were centrifuged at 500×g for 5 min, supernatants were discarded, and cells were resuspended in a volume (75 μL×OD×Vculture) of transformation cocktail (45% PEG-400, 0.1 M LiAc, 0.1 M DTT, and 25 ug/100 μL SS Salmon Sperm DNA). For each transformation, >1 μg of plasmid DNA was added to 55 μL cells/transformation cocktail and vortexed for 2 s. Transformations were incubated at 39° C. for 1 h with 250 rpm shaking. Transformations were resuspended in 750 μL YPD with 1 M sorbitol and recovered at 30° C. overnight with 250 rpm shaking. The next day, transformations were centrifuged at 500×g for 5 min, supernatants were discarded, and cell pellets were resuspended in 750 YPD. Resuspended transformations were plated on YPD with appropriate selection or YNBD (6.71 g/L yeast nitrogen base+nitrogen, 0.5% casamino acids, 2% dextrose) agar plates and grown at 30° C. for 2 days. Individual colonies were patched onto YPD plates with appropriate selection or YNBD plates and grown at 30° C. overnight. Patches were used to inoculate 0.5 mL YPD with appropriate selection or YNBD precultures in 96 w blocks and grown at 30° C. for 24-48 h with 1000 rpm shaking. For assays, 0.5 mL YPD with appropriate selection or YNBD cultures containing substrate were inoculated with 2 μL from precultures and grown at 30° C. for 2-4 days with 1000 rpm shaking with 2% glucose added every 24 h. Assay cultures were quenched by addition of 0.5 mL ethanol with 0.2% formic acid and 0.5 mg/mL pentyl-benzoic acid. Precipitates were pelleted by centrifuging at 4600×g for 10 min and then 200 μL was transferred to fresh plates, sealed, and analyzed via HPLC.
(§2) All samples were quenched with equal volume of EtOH containing 0.2 mg/mL internal standard (3,5-Diisopropyl-2-hydroxybenzoic acid CAS #2215-21-6) centrifuged, and clarified solutions were analyzed by HPLC-MS
(§3) • Column: 2.1×50 mm COSMOCORE PBr (Nacalai USA, Inc.) • Mobile Phase: A; 0.1% formic acid in water, B; 0.1% formic acid in acetonitrile • Flow: 0.45 mL/min • Temp: % 50 Celsius • Gradient: 20%B at 0 min, 70%B at 2.3 min, 89% B at 4.2 min, 20% B at 4.3 min, 20%B at 6 min

Experiment [3] concerns divarinic acid. Put plainly: MPT fusions with GPS1.1 vs unfused MPTs, DVA feed (Example 9, Table 11). The conditions noted are these: 2 mM divarinic acid. The method, then:
As described below, plasmids pCL-SE-0406, pCL-SE-0664, pCL-SE-0663, pCL-SE-0662, pCL-SE-0380 (MPT4), pCL-SE-0337.MPT21, were transformed into strain sCL-SE-0128. Multiple colonies per transformation were precultured for 48 h in YNB containing glucose (2%), casamino acids (0.5%), and MES (100 mM pH 6.5). Pre-culture was used to inoculate assay medium comprised of YNB containing glucose (2%), casamino acids (0.5%), MES (100 mM pH 6.5), and divarinic acid (2 mM). Cultures were quenched after 48 h total growth and assayed for CBGVA and FCBGVA. Averages and standard deviations were calculated from replicates.
as §1, §2, §3

For experiment [4], the system named is divarinic acid. Put plainly: GPS1.1 fusions of MPT21 mutants, DVA feed (Example 9, Table 12). To be noted: 2 mM divarinic acid, 2% glucose, quenched after 48 h; strain sCL-SE-0128. The method, then:
as §1, §2, §3

Experiment [5] has as its system hexanoic acid. Put plainly: GPS-PKC-MPT fusions, hexanoic acid feed in vivo assay (Example 13). As to the method: Strain SB-00311 (HCS2, PKS1.1 and PKC1.1) was co-transformed with 1) a construct (pCL-SE-0274) for expression of HMGR and GPS1.1 and 2) a construct (pCL-SE-0406) for expression of a fusion protein that contains, from N- to C-terminus, GPS1.1 and MPT4 linked using the F11 linker sequence or a construct (pCL-SE-0474) for expression of a fusion protein that contains, from N- to C-terminus, GPS1.1, PKC1.1 and MPT4, each linked using the F11 linker sequence.
Transformants were assessed for CBGA production from hexanoic acid. Assay cultures consisted of YNBD+CAA media with 2.5 mM hexanoic acid. After 24 h, an additional 5 mM hexanoic acid was added to each assay culture. Cultures were quenched after 48 h total growth.
Overnight YPD (10 g/L yeast extract, 20 g/L peptone, 2% dextrose) cultures were inoculated from glycerol stocks of the appropriate strain and grown at 30° C. with 250 rpm shaking. Once cultures had reached an OD600 of 4-6, cultures were centrifuged at 500×g for 5 min, supernatants were discarded, and cell pellets were resuspended in equal volume of water. Resuspended cells were centrifuged at 500×g for 5 min, supernatants were discarded, and cells were resuspended in a volume (75 μL×OD×Vculture) of transformation cocktail (45% PEG-400, 0.1 M LiAc, 0.1 M DTT, and 25 ug/100 μL SS Salmon Sperm DNA). For each transformation, >1 μg of plasmid DNA was added to 55 μL cells/transformation cocktail and vortexed for 2 s. Transformations were incubated at 39° C. for 1 h with 250 rpm shaking. Transformations were resuspended in 750 μL YPD with 1 M sorbitol and recovered at 30° C. overnight with 250 rpm shaking. […] Precipitates were pelleted by centrifuging at 4600×g for 10 min and then 200 μL was transferred to fresh plates, sealed, and analyzed via HPLC.
All samples were quenched with equal volume of EtOH containing 0.2 mg/mL internal standard (3,5-Diisopropyl-2-hydroxybenzoic acid CAS #2215-21-6) centrifuged, and clarified solutions were analyzed by HPLC-MS […]

Where [6] appears, read: 2% glucose, quenched after 48 h, strain sCL-SE-0128.

B1: GPS1.1-F11-MPT21: fusion of GPS1.1 and MPT21 via F11 linker, SEQ ID NO: 25 (protein)
chain: MSKAKFESVFPRISEELVQLLRDEGLPQDAVQWFSDSLQYNCVGGKLNRGLSVVDTYQLLTGKKELDDEEYYRLALLGWLIELLQAFWLVSDDIMDESKTRRGQPCWYLKPKVGMIAIWDAFMLESGIYILLKKHFRQEKYYIDLVELFHDISFKTELGQLVDLLTAPEDEVDLNRFSLDKHSFIVRYKTAYYSFYLPVVLAMYVAGITNPKDLQQAMDVLIPLGEYFQVQDDYLDNFGDPEFIGKIGTDIQDNKCSWLVNKALQKATPEQRQILEDNYGVKDKSKELVIKKLYDDMKIEQDYLDYEEEVVGDIKKKIEQVDESRGFKKEVLNAFLAKIYKRQKGGAEAAAKEAAAKAGGSGGGSGGGGSGGSGGGGSGGGGSMSDNSIATKILNFGHTCWKLQRPYVVKGMISIACGLFGKELLHNTNLISWGLMWKAFFALVPILSFNFFAAIMNQIYDVDIDRINKPDLPLVSGEMSIETAWILSIIVALTGLIVTIKLKSAPLFVFIYIFGIFAGFAYSVPPIRWKQNPSTNFLITISSHVGLAFTSYYASRAALGLPFELRPSFTFLLAFMTVMGMTIAFAKDISDIEGDAKYGVSTVATKLGARNMTFVVSGVLLLNYVAAILAGIIWPQAFNSNVMLLSHAILAFCLIFQTRELALANYASAPSRQFFEFIWLLYYAEYFVYVFI
modifications: GPS1.1-F11-MPT21, geranyl diphosphate synthase, recombinant membrane-bound prenyltransferase fusion protein
In the case of B1, in experiment [1] (2% glucose, strain sCL-SE-0128), the CBGA stood at 156 ± 13 µM and the FCBGA was determined as 52 ± 5 µM. The CBGA/FCBGA in experiment [1] (product ratio) was 3.0. For the same molecule, in experiment [2], the CBGA amounted to 276 ± 17 µM and the FCBGA came out at 89 ± 4 µM. In experiment [3] (setting [6]), this molecule had a CBGVA of 28 ± 2 µM and an FCBGVA of 4 ± 0 µM. The CBGVA/FCB in experiment [3] (48 h, product ratio) was found to be 7.2. In addition, in experiment [4], the CBGVA is 58 ± 7 µM and the FCBGVA is 6 ± 1 µM.

B2: GPS1.1-F11-PKC1.1-F11-MPT4: triple fusion of GPS1.1, PKC1.1 and MPT4 via F11 linkers, SEQ ID NO: 92 (protein)
chain: MSKAKFESVFPRISEELVQLLRDEGLPQDAVQWFSDSLQYNCVGGKLNRGLSVVDTYQLLTGKKELDDEEYYRLALLGWLIELLQAFWLVSDDIMDESKTRRGQPCWYLKPKVGMIAIWDAFMLESGIYILLKKHFRQEKYYIDLVELFHDISFKTELGQLVDLLTAPEDEVDLNRFSLDKHSFIVRYKTAYYSFYLPVVLAMYVAGITNPKDLQQAMDVLIPLGEYFQVQDDYLDNFGDPEFIGKIGTDIQDNKCSWLVNKALQKATPEQRQILEDNYGVKDKSKELVIKKLYDDMKIEQDYLDYEEEVVGDIKKKIEQVDESRGFKKEVLNAFLAKIYKRQKGGAEAAAKEAAAKAGGSGGGSGGGGSGGSGGGGSGGGGSMAVKHLIVLKFKDEITEAQKEEFFKTFVNLVNIIPAMKDVYWGKDVTQKNKEEGYTHIVEVTFESVETIQDYIIHPAHVGFGDVYRSFWEKLLIFDYTPRKGGAEAAAKEAAAKAGGSGGGSGGGGSGGSGGGGSGGGGSMSDNSIATKILNFGHTCWKLQRPYVVKGMISIACGLFGRELFNNRHLFSWGLMWKAFFALVPILSFNFFAAIMNQIYDVDIDRINKPDLPLVSGEMSIETAWILSIIVALTGLIVTIKLKSAPLFVFIYIFGIFAGFAYSVPPIRWKQYPFTNFLITISSHVGLAFTSYSATTSALGLPFVWRPAFSFIIAFMTVMGMTIAFAKDISDIEGDAKYGVSTVATKLGARNMTFVVSGVLLLNYLVSISIGIIWPQVFKSNIMILSHAILAFCLIFQTRELALANYASAPSRQFFEFIWLLYYAEYFVYVFI
modifications: GPS1.1-F11-PKC1.1-F11-MPT4, geranyl diphosphate synthase, polyketide cyclase, membrane-bound prenyltransferase fusion protein
As to B2, the CBGA in experiment [5] (hexanoic acid 2.5 mM plus 5 mM after 24 h, 48 h quench, strain SB-00311 + pCL-SE-0274, average of 44 or 34 transformants) worked out at 77.4 ± 32.4 µM. For the same molecule, in experiment [5] (in words, hexanoic acid feed), the “production of CBGA compared to the GPS1.1-MPT4 double fusion” value is “improved production of CBGA”.

For the origin of these results see US20240228986A1, “ENGINEERED CELLS, ENZYMES, AND METHODS FOR PRODUCING CANNABINOIDS” (priority 2021, published 2024).
